Experimental data from IntAct's records for PubMed 25770211.

B1: 5-hydroxytryptamine receptor 2C (Homo sapiens), P28335 (parent)
chain: MVNLRNAVHSFLVHLIGLLVWQSDISVSPVAAIVTDIFNTSDGGRFKFPDGVQNWPALSIVIIIIMTIGGNILVIMAVSMEKKLHNATNYFLMSLAIADMLVGLLVMPLSLLAILYDYVWPLPRYLCPVWISLDVLFSTASIMHLCAISLDRYVAIRNPIEHSRFNSRTKAIMKIAIVWAISIGVSVPIPVIGLRDEEKVFVNNTTCVLNDPNFVLIGSFVAFFIPLTIMVITYCLTIYVLRRQALMLLHGHTEEPPGLSLDFLKCCKRNTAEEENSANPNQDQNARRRKKKERRPRGTMQAINNERKASKVLGIVFFVFLIMWCPFFITNILSVLCEKSCNQKLMEKLLNVFVWIGYVCSGINPLVYTLFNKIYRRAFSNYLRCNYKVEKKPPVRQIPRVAATALSGRELNVNIYRHTNEPVIEKASDNEPGIEMQVENLELPVNPSSVVSERISSV
partner: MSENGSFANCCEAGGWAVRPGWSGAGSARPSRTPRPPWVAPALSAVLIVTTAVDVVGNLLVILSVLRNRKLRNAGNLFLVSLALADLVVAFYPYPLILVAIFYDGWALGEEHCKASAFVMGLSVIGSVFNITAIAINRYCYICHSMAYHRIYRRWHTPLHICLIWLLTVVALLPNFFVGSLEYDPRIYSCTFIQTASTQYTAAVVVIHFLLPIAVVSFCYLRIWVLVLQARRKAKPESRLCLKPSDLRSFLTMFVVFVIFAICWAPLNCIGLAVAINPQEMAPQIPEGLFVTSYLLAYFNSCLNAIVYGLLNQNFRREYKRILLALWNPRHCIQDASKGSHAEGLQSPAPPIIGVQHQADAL

Variants of: B1
Settings: with mtr1b_human MTNR1B

| effect of a mutation on the interaction | Variant |
| --- | --- |
| with no effect | S138N |
